“Also recorded” adds a separate entry of the source.
Conditions: N-glycosylation at N297

Maxatezo / Atezolizumab (anti-PD-L1 human IgG1) heavy chain: N297A (Atezolizumab) compared with A297N back-mutation + GGGS insertion (Maxatezo)
expression_or_secretion: decreases, 1.3 g/L (aglycosylated) vs up to 4 g/L (Maxatezo) | other: increases | stability_or_folding: decreases, Tm1 71.01 °C (Maxatezo) vs 63.55 °C (Atezolizumab), 7.46 °C difference; also recorded: decreases, Tagg 71.2 °C (Maxatezo) vs 60.7 °C (Atezolizumab), 10.5 °C difference

Reference: paper PMC7952408
